Laboratory results reported in patent US20180072816A1.

Target: human CXCR4 (human) (UniProt P61073)
Experiment: cell-based or functional assay

Chain of human CXCR4 (human) (P61073 whole entry): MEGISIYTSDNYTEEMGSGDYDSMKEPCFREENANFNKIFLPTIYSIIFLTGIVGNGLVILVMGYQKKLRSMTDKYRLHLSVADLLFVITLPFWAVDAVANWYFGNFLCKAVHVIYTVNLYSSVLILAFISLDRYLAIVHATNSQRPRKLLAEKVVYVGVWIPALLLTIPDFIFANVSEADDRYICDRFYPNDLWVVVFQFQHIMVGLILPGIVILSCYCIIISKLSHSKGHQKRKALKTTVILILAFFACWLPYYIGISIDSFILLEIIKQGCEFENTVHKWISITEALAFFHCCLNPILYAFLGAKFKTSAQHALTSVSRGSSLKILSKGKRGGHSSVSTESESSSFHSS

IC50 (nM) in β-Arrestin BRET assay (Antagonist mode in the presence of 100 nM SDF-1): 64 nM
Substance: anti-CXCR4 MAb 12G5 (antibody)
